From patent publication US12042530B2, “Target peptides for immunotherapy and diagnostics” (University of Virginia Patent Foundation, priority 2012, dated 2024)
Non-standard residues stand in square brackets, D forms with d. No end group written: not given here. pS = N[C@@H](COP(=O)(O)O)C(=O)O

Experiments:
[1] = target: T1, HLA-B*0702 (HLA-B7) peptide complexes (Homo sapiens, UniProt P01889); experiment: HLA-B*0702 phosphopeptides associated with leukemia samples (isolation of HLA-associated peptides); conditions: for Copies/cell class, ALL1: acute lymphoblastic leukemia sample ALL1; for Copies/cell class, HCL1: hairy cell leukemia sample HCL1
T1 construct: endogenous in cells; host or cells: JY B-lymphoblastoid line; primary ALL, CLL, HCL, AML samples; bone marrow; healthy B and T cells
How it was run: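 Class I HLA-A2 and HLA-B7 complexes were immunoaffinity-purified (BB7.2 or MEL antibodies on protein A) from CHAPS lysates of ~1.2-14×10^9 cells, using phosphatase and protease inhibitors. Sources were Ficoll-purified (>98%) CLL, MCL, ALL and AML cells, healthy splenic T/B cells and JY cells. Peptides were eluted with 10% acetic acid.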

HLA-B*0702 = target: T2, HLA-B*0702 (Homo sapiens, UniProt P01889); experiment: Phosphopeptides presented in association with class I molecules (HLA-B*0702) on cancer cells: melanoma and/or leukemia; parameters: key: Melanoma (M); Leukemia (L); L/M: Melanoma (M) and/or Leukemia (L); conditions: cancer type on which the HLA-B*0702 phosphopeptide is presented
T2 construct: endogenous in cells; host or cells: melanoma and/or leukemia cells

[2] = target: T3, HLA-A*0201 (HLA-A2) peptide complexes (Homo sapiens, UniProt P04439, D140Y/D185E/D98H/E176V/E277Q/G131W/G231S/I119V/I121R/I166T/I218V/L300P/L318F/N151K/N90K/P208A/P217A/Q86G/Q94H/R138H/R169H/T345S); experiment: HLA-A*0201 phosphopeptides associated with leukemia samples (isolation of HLA-associated peptides); conditions: for Copies/cell class, JY: EBV transformed B lymphoblastoid cell line JY; for Copies/cell class, AML1: acute myeloid leukemia sample AML1; for Copies/cell class, CLL1: chronic lymphocytic leukemia sample CLL1; for Copies/cell class, B Cell: healthy B cells; for Copies/cell class, T Cell: healthy T cells; for Copies/cell class, MCL: mantle cell lymphoma sample
T3 construct: endogenous in cells; host or cells: JY B-lymphoblastoid line; primary CLL, MCL, AML, ALL samples; healthy splenic T and B cells
From the text: To identify naturally processed tumor-associated phosphopeptides, HLA-A*0201 (HLA-A2) and HLA-B*0702 (HLA-B7) peptide complexes from four (4) chronic lymphocytic leukemia (CLL) tumor samples, a mantle cell lymphoma sample (MCL), one acute lymphoblastic leukemia (ALL), and an acute myeloid leukemia (AML) sample, in addition to healthy splenic T and B-cells and the cultured lymphoblastoid cell line JY were isolated. These efforts yielded 10 HLA-A2-restricted and 86 HLA-B7-restricted phosphopeptide antigens (see Tables 6 and 7).
All cell lines were grown at 37° C. with 5% CO2 in growth medium consisting of RPMI 1640 supplemented with 10% FCS and two mM L-glutamine. Blood or leukapheresis samples were taken from patients with high-burden leukemia in heparin. Tumor cells were recovered by layering the blood over density gradient (Ficoll) and collecting the tumor layer following centrifugation. The tumor was washed in tris-buffered saline (TBS). The purity of the tumor was assessed using flow cytometry and was >98% pure in all cases. For healthy T and B-cell populations, a normal spleen sample processed and tonsil sample was collected and lymphocytes released through mechanical disruption. Mononuclear cells were isolated using a density gradient and 10^9 T cells isolated using anti-CD19 or anti-CD3 microbeads (Miltenyi Biotec Inc., Auburn, California, United States of America) with purity >98% were obtained. Bone marrow sample was obtained from an elective orthopedic procedure and red cell-depleted using hypotonic lysis. This sample was not processed further.
Class I MHC molecules were immunoaffinity purified from the JY cell line or from primary tumor samples, and their associated peptides were extracted as previously described in Zarling et al., 2006. Approximately 1.2-14×10^9 cells were lysed in a solution containing 20 mM Tris-HCl (pH 8.0), 150 mM NaCl, 1% CHAPS, one mM PMSF, five μg/mL aprotinin, 10 μg/mL leupeptin, 10 μg/mL pepstatin A, 1 μg/ml calyculin A, and phosphatase inhibitor (cocktails I and II; Sigma-Aldrich). The mixture was subjected to centrifugation and the resulting supernatant was passed over protein A sepharose pre-loaded with the HLA-A2-specific antibody BB7.2 or HLA-B7-specific antibody MEL Peptides were eluted from the purified class I MHC molecules with 10% acetic acid.

Substance	Copies/cell class, AML1 [1]	L/M (HLA-B*0702)	Copies/cell class, CLL2 [2]	Copies/cell class, CLL3 [2]	Copies/cell class, CLL4 [2]	Copies/cell class, JY [2]	Copies/cell class, AML1 [2]	Copies/cell class, CLL1 [2]	Copies/cell class, B Cell [2]	Copies/cell class, T Cell [2]	Copies/cell class, MCL [2]	further results
379 (SPR[pS]PSTTYL; listed as Homo sapiens) [compound 379]	2 (2 indicates 1-5 copies/cell)	L	–	–	–	–	–	–	–	–	–	–
383 (SPSTSRSGG[pS]SRL; listed as Homo sapiens) [compound 383]	1 (1 indicates <1 copy/cell)	L	–	–	–	–	–	–	–	–	–	–
385 (TPAQPQRR[pS]L; listed as Homo sapiens) [compound 385]	–	L	–	–	–	–	–	–	–	–	–	Copies/cell class, ALL1 [1]: 1 (1 indicates <1 copy/cell)
387 (TPR[pS]PPLGL; listed as Homo sapiens) [compound 387]	3 (3 indicates 6-25 copies per cell)	L	–	–	–	–	–	–	–	–	–	Copies/cell class, CLL2 [1]: 3 (3 indicates 6-25 copies per cell); Copies/cell class, CLL4 [1]: 2 (2 indicates 1-5 copies/cell); Copies/cell class, JY [1]: 4 (4 indicates >25 copies per cell); Copies/cell class, HCL1 [1]: 3 (3 indicates 6-25 copies per cell)
389 (VPR[pS]PKHAHSSSL; listed as Homo sapiens) [compound 389]	1 (1 indicates <1 copy/cell)	L	–	–	–	–	–	–	–	–	–	–
392 (YQR[pS]FDEVEGVF; listed as Homo sapiens) [compound 392]	2 (2 indicates 1-5 copies/cell)	L	–	–	–	–	–	–	–	–	–	–
440 (KLIDRTESL; SITE (1)..(9): One or more of the listed amino acids can be phosphorylated as set forth in the Tables; listed as Homo sapiens) [compound 440]	–	–	2 (2 indicates 1-5 copies/cell)	1 (1 indicates <1 copy/cell)	1 (1 indicates <1 copy/cell)	2 (2 indicates 1-5 copies/cell)	0	2 (2 indicates 1-5 copies/cell)	0	0	0	–
444 (KMDSFLDMQL; SITE (1)..(10): One or more of the listed amino acids can be phosphorylated as set forth in the Tables; listed as Homo sapiens) [compound 444]	–	–	0	0	1 (1 indicates <1 copy/cell)	2 (2 indicates 1-5 copies/cell)	0	0	0	0	0	–
456 (RQLSSGVSEI; SITE (1)..(10): One or more of the listed amino acids can be phosphorylated as set forth in the Tables; listed as Homo sapiens) [compound 456]	–	–	0	1 (1 indicates <1 copy/cell)	0	0	0	0	0	0	0	–
459 (RVASPTSGV; SITE (1)..(109: One or more of the listed amino acids can be phosphorylated as set forth in the Tables; listed as Homo sapiens) [compound 459]	–	–	1 (1 indicates <1 copy/cell)	0	0	0	0	1 (1 indicates <1 copy/cell)	0	0	1 (1 indicates <1 copy/cell)	–

Second part, led by results:

Copies/cell class, AML1 [1]	L/M (HLA-B*0702)	Copies/cell class, CLL2 [2]	Copies/cell class, CLL3 [2]	Copies/cell class, CLL4 [2]	Copies/cell class, JY [2]	Copies/cell class, AML1 [2]	Copies/cell class, CLL1 [2]	Copies/cell class, B Cell [2]	Copies/cell class, T Cell [2]	Copies/cell class, MCL [2]	Substance	further results
2 (2 indicates 1-5 copies/cell)	L	–	–	–	–	–	–	–	–	–	377 (SPR[pS]PGKPM; listed as Homo sapiens) [compound 377]	Copies/cell class, CLL2 [1]: 1 (1 indicates <1 copy/cell); Copies/cell class, CLL4 [1]: 2 (2 indicates 1-5 copies/cell); Copies/cell class, JY [1]: 4 (4 indicates >25 copies per cell); Copies/cell class, ALL1 [1]: 1 (1 indicates <1 copy/cell); Copies/cell class, HCL1 [1]: 2 (2 indicates 1-5 copies/cell)
2 (2 indicates 1-5 copies/cell)	L	–	–	–	–	–	–	–	–	–	382 (SPS[pS]PSVRRQL; listed as Homo sapiens) [compound 382]	Copies/cell class, B Cell ([1]; healthy B cells): 2 (2 indicates 1-5 copies/cell); Copies/cell class, T Cell ([1]; healthy T cells): 2 (2 indicates 1-5 copies/cell)
–	L	–	–	–	–	–	–	–	–	–	386 (TPI[pS]PGRASGM; listed as Homo sapiens) [compound 386]	Copies/cell class, ALL1 [1]: 1 (1 indicates <1 copy/cell)
3 (3 indicates 6-25 copies per cell)	L	–	–	–	–	–	–	–	–	–	388 (TPR[pS]PPLGLI; listed as Homo sapiens) [compound 388]	Copies/cell class, CLL2 [1]: 2 (2 indicates 1-5 copies/cell); Copies/cell class, CLL4 [1]: 2 (2 indicates 1-5 copies/cell); Copies/cell class, JY [1]: 4 (4 indicates >25 copies per cell); Copies/cell class, HCL1 [1]: 2 (2 indicates 1-5 copies/cell)
1 (1 indicates <1 copy/cell)	L	–	–	–	–	–	–	–	–	–	391 (YQR[pS]FDEVEGV; listed as Homo sapiens) [compound 391]	–
–	–	1 (1 indicates <1 copy/cell)	0	0	0	0	0	0	0	0	436 (KAKSPAPGL; SITE (1)..(9): One or more of the listed amino acids can be phosphorylated as set forth in the Tables; listed as Homo sapiens) [compound 436]	–
–	–	2 (2 indicates 1-5 copies/cell)	1 (1 indicates <1 copy/cell)	1 (1 indicates <1 copy/cell)	4 (4 indicates >25 copies per cell)	1 (1 indicates <1 copy/cell)	2 (2 indicates 1-5 copies/cell)	2 (2 indicates 1-5 copies/cell)	2 (2 indicates 1-5 copies/cell)	1 (1 indicates <1 copy/cell)	451 (RQASIELPSM; SITE (1)..(10): One or more of the listed amino acids can be phosphorylated as set forth in the Tables; listed as Homo sapiens) [compound 451]	–
–	–	0	1 (1 indicates <1 copy/cell)	0	0	0	0	0	0	0	457 (RTFSPTYGL; SITE (1)..(9): One or more of the listed amino acids can be phosphorylated as set forth in the Tables; listed as Homo sapiens) [compound 457]	–
